Experimental data taken from the supplement of paper PMC7125110.
± gives the standard error. For some of these results: This sample holds only a part of the variants without activity.

B1: glmS ribozyme (parent)
chain: AUAAAAGCGCCAGAACUACAGAAAUGUAGUUGACGAGGAGGAGGUUUAUCGAAUUUUCGGCGGAUGCCUCCAAA

Experiments:
Settings in all cases: with glucosamine-6-phosphate
glucosamine-6-phosphate [1] = variants of: B1; assay: kcat; higher = faster cleavage; RNA array
Method in brief: (§1)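 Weighted Michaelis–Menten fits across concentrations supplied kcat and KM, based on kobs from one- or two-exponential decay fits to normalised per-tile medians. The data came from barcoded ribozyme variants transcribed in situ by E. coli RNA polymerase on sequenced MiSeq chips and tracked at 37 °C by a hybridised Cy3 probe. Glucosamine-6-phosphate (40 μM to 10 mM) in HEPES/KCl/Mg(OAc)2 buffer was flowed in.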

glucosamine-6-phosphate [2] = variants of: B1; assay: KM; higher = weaker cofactor use; RNA array
Method in brief: as §1

glucosamine-6-phosphate [3] = variants of: B1; assay: self-cleavage kobs at 640 uM GlcN6P; higher = faster cleavage; RNA array
Method in brief: as §1

glucosamine-6-phosphate [4] = variants of: B1; assay: self-cleavage kobs at 2500 uM GlcN6P; higher = faster cleavage; RNA array
Method in brief: as §1

glucosamine-6-phosphate [5] = variants of: B1; assay: self-cleavage kobs at 10000 uM GlcN6P; higher = faster cleavage; RNA array
Method in brief: as §1

glucosamine-6-phosphate [6] = variants of: B1; assay: self-cleavage kobs at 40 uM GlcN6P; higher = faster cleavage; RNA array
Method in brief: as §1

glucosamine-6-phosphate [7] = variants of: B1; assay: self-cleavage kobs at 160 uM GlcN6P; higher = faster cleavage; RNA array
Method in brief: as §1

| Variant | kcat (glucosamine-6-phosphate [1]) | KM (glucosamine-6-phosphate [2]) | self-cleavage kobs at 640 uM GlcN6P (glucosamine-6-phosphate [3]) | self-cleavage kobs at 2500 uM GlcN6P (glucosamine-6-phosphate [4]) | self-cleavage kobs at 10000 uM GlcN6P (glucosamine-6-phosphate [5]) | self-cleavage kobs at 40 uM GlcN6P (glucosamine-6-phosphate [6]) | self-cleavage kobs at 160 uM GlcN6P (glucosamine-6-phosphate [7]) |
| --- | --- | --- | --- | --- | --- | --- | --- |
| C16A U45G | 0.000271 ± 2.9e-06 s⁻¹ | 2200 ± 54 µM | 6.15e-05 ± 1.2e-05 s⁻¹ | 0.000144 ± 3.4e-05 s⁻¹ | 0.000222 ± 2.7e-05 s⁻¹ | – | – |
| C16G A64C | 2.1e-05 ± 1.7e-06 s⁻¹ | 9060 ± 1500 µM | – | – | – | – | – |
| A6G A12G | 1.13e-05 ± 1.3e-06 s⁻¹ | – | – | – | – | – | – |
| C67G C70U | 0.000163 ± 2.9e-06 s⁻¹ | 1750 ± 88 µM | 4.24e-05 ± 6e-06 s⁻¹ | 9.79e-05 ± 8.3e-06 s⁻¹ | 0.000137 ± 8.4e-06 s⁻¹ | – | – |
| G32U A33U | < 1e-05 s⁻¹ | – | – | < 1e-05 s⁻¹ | – | < 1e-05 s⁻¹ | < 1e-05 s⁻¹ |
| C34G C70A | 1.99e-05 ± 6.8e-06 s⁻¹ | – | – | – | – | – | – |
| A12U G44U | 0.000852 ± 0.00012 s⁻¹ | 1290 ± 350 µM | 0.000264 ± 4.7e-05 s⁻¹ | 0.000645 ± 0.0001 s⁻¹ | 0.000739 ± 8e-05 s⁻¹ | 3.83e-05 ± 8.2e-06 s⁻¹ | 7.54e-05 ± 1.9e-05 s⁻¹ |
| G40C G41U | 8.06e-05 ± 2.1e-05 s⁻¹ | – | – | 8.04e-05 ± 1.1e-05 s⁻¹ | 6.61e-05 ± 7.9e-06 s⁻¹ | – | – |
| G40C U46C | 0.00119 ± 0.00012 s⁻¹ | 1800 ± 280 µM | 0.000304 ± 6.3e-05 s⁻¹ | 0.000729 ± 0.00014 s⁻¹ | 0.000967 ± 0.00024 s⁻¹ | – | 9.41e-05 ± 1.9e-05 s⁻¹ |
| A36C U65G C70U | 1.94e-05 ± 5.3e-06 s⁻¹ | – | – | – | – | – | – |
| U46A G66A | 0.000792 ± 5.9e-05 s⁻¹ | 2830 ± 440 µM | 0.000156 ± 3.3e-05 s⁻¹ | 0.000321 ± 8.6e-05 s⁻¹ | 0.00063 ± 7.9e-05 s⁻¹ | – | – |
| G13U C16A | 0.000283 ± 1.2e-05 s⁻¹ | 4340 ± 370 µM | 3.79e-05 ± 1.2e-05 s⁻¹ | 0.0001 ± 2.2e-05 s⁻¹ | 0.000198 ± 2.6e-05 s⁻¹ | – | – |
| C61A C70G | 1.68e-05 ± 3.8e-06 s⁻¹ | – | – | – | – | – | – |
| A15G A53C | 0.00857 ± 0.0011 s⁻¹ | 1860 ± 340 µM | 0.00195 ± 0.00035 s⁻¹ | 0.00522 ± 0.0012 s⁻¹ | 0.00742 ± 0.0015 s⁻¹ | 0.000205 ± 3.7e-05 s⁻¹ | 0.000653 ± 0.00021 s⁻¹ |
| G37U C70G | 2.07e-05 ± 8.5e-06 s⁻¹ | – | – | – | – | – | – |
| A42G A48C | 0.00074 ± 0.00011 s⁻¹ | 4500 ± 1200 µM | 9.68e-05 ± 2.1e-05 s⁻¹ | 0.000276 ± 8.7e-05 s⁻¹ | 0.000506 ± 7.8e-05 s⁻¹ | – | – |
| G13U A33U | 1.31e-05 ± 3.3e-07 s⁻¹ | 1490 ± 190 µM | – | – | – | < 1e-05 s⁻¹ | < 1e-05 s⁻¹ |
| C11U U56C | 0.000248 ± 5e-05 s⁻¹ | 2260 ± 1000 µM | 4.51e-05 ± 9.7e-06 s⁻¹ | 0.000176 ± 2.3e-05 s⁻¹ | 0.000188 ± 2.3e-05 s⁻¹ | – | – |

| Variant | kcat (glucosamine-6-phosphate [1]) | KM (glucosamine-6-phosphate [2]) | self-cleavage kobs at 640 uM GlcN6P (glucosamine-6-phosphate [3]) | self-cleavage kobs at 2500 uM GlcN6P (glucosamine-6-phosphate [4]) | self-cleavage kobs at 10000 uM GlcN6P (glucosamine-6-phosphate [5]) | self-cleavage kobs at 40 uM GlcN6P (glucosamine-6-phosphate [6]) | self-cleavage kobs at 160 uM GlcN6P (glucosamine-6-phosphate [7]) |
| --- | --- | --- | --- | --- | --- | --- | --- |
| U45G C67A | 0.00845 ± 0.0014 s⁻¹ | 2670 ± 590 µM | 0.00177 ± 0.00033 s⁻¹ | 0.00369 ± 0.001 s⁻¹ | 0.00674 ± 0.0011 s⁻¹ | 0.000114 ± 1.8e-05 s⁻¹ | 0.000663 ± 0.00016 s⁻¹ |
| G29U C68G | 3.07e-05 ± 6.3e-06 s⁻¹ | – | – | 3.95e-05 ± 1.1e-05 s⁻¹ | – | – | – |
| U30C G40A | 9.74e-05 ± 1.5e-05 s⁻¹ | 3260 ± 1400 µM | – | 4.56e-05 ± 1.3e-05 s⁻¹ | 7.27e-05 ± 1.2e-05 s⁻¹ | < 1e-05 s⁻¹ | – |
| C11U G40U C70U | 0.000108 ± 1.1e-06 s⁻¹ | 1100 ± 48 µM | – | 7.62e-05 ± 2.5e-05 s⁻¹ | 9.73e-05 ± 2e-05 s⁻¹ | – | – |
| A39C C71A | 6.38e-05 ± 6.4e-06 s⁻¹ | 1930 ± 720 µM | – | 4.16e-05 ± 1.1e-05 s⁻¹ | 5.25e-05 ± 7.2e-06 s⁻¹ | – | – |
| A6U G60C C67A | < 1e-05 s⁻¹ | – | < 1e-05 s⁻¹ | – | < 1e-05 s⁻¹ | – | < 1e-05 s⁻¹ |
| A12U G60U | 1.13e-05 ± 1.6e-06 s⁻¹ | – | – | – | < 1e-05 s⁻¹ | < 1e-05 s⁻¹ | < 1e-05 s⁻¹ |
| G29U A53G C67G | 0.000147 ± 2.6e-05 s⁻¹ | – | 0.000108 ± 1.9e-05 s⁻¹ | 0.000139 ± 3.6e-05 s⁻¹ | 0.000205 ± 4.9e-05 s⁻¹ | 5.1e-05 ± 1.8e-05 s⁻¹ | 6.91e-05 ± 1.9e-05 s⁻¹ |
| U45C A53G | 0.00416 ± 0.0017 s⁻¹ | – | 0.000905 ± 0.00016 s⁻¹ | 0.00188 ± 0.00042 s⁻¹ | 0.00291 ± 0.00074 s⁻¹ | – | 0.000134 ± 4.9e-05 s⁻¹ |
| C50U A53C U54G | 1.06e-05 ± 9.8e-07 s⁻¹ | – | – | – | < 1e-05 s⁻¹ | – | – |
| G32C U56G | 5.69e-05 ± 1.6e-06 s⁻¹ | 663 ± 110 µM | 2.63e-05 ± 1.3e-05 s⁻¹ | 4.76e-05 ± 1.1e-05 s⁻¹ | 5.27e-05 ± 7.2e-06 s⁻¹ | < 1e-05 s⁻¹ | – |
| G32U C58A | 0.00151 ± 0.00022 s⁻¹ | 5030 ± 1000 µM | 0.000164 ± 1.4e-05 s⁻¹ | 0.000495 ± 4.5e-05 s⁻¹ | 0.00102 ± 8.8e-05 s⁻¹ | – | 6.77e-05 ± 1.3e-05 s⁻¹ |
| G29A C71G | 0.00019 ± 3.4e-05 s⁻¹ | – | 9.26e-05 ± 2.3e-05 s⁻¹ | 0.000117 ± 2.3e-05 s⁻¹ | 0.000204 ± 3.3e-05 s⁻¹ | – | – |
| A52C C68A | 2.96e-05 ± 7.8e-06 s⁻¹ | – | 3.82e-05 ± 1.2e-05 s⁻¹ | 3.05e-05 ± 1.2e-05 s⁻¹ | – | – | – |
| C10A A12C U56A | 0.000168 ± 4.1e-05 s⁻¹ | – | 7.12e-05 ± 3e-05 s⁻¹ | 0.000306 ± 0.00011 s⁻¹ | 0.00015 ± 2.7e-05 s⁻¹ | – | – |
| A39U U46G | 0.00673 ± 0.0011 s⁻¹ | 4400 ± 920 µM | 0.000968 ± 0.00018 s⁻¹ | 0.0023 ± 0.00049 s⁻¹ | 0.00476 ± 0.0014 s⁻¹ | 5.61e-05 ± 1.4e-05 s⁻¹ | 0.000227 ± 6.1e-05 s⁻¹ |
| A12U U69G | 0.000139 ± 1.8e-05 s⁻¹ | 437 ± 200 µM | 9.2e-05 ± 1e-05 s⁻¹ | 0.000109 ± 1e-05 s⁻¹ | 0.000145 ± 1.5e-05 s⁻¹ | 2.68e-05 ± 8.8e-06 s⁻¹ | 2.7e-05 ± 8.8e-06 s⁻¹ |
